Experiments:
Assay in all cases: IEDB peptide-MHC binding, purified MHC/competitive/radioactivity; filed as Kd, often an IC50 or EC50 that approximates it; ≥ and ≤ were set here for values at or beyond the usual limits of such assays
[1] = molecular target: HLA-A*03:01
[2] = molecular target: HLA-A*11:01
[3] = molecular target: HLA-A*31:01
[4] = molecular target: HLA-A*33:01
[5] = molecular target: HLA-A*68:01
[6] = source organism: Vaccinia virus WR
[7] = source organism: Dengue virus 2 Jamaica/1409/1983
[8] = source organism: SARS coronavirus Tor2
[9] = source organism: Dengue virus 1 Brazil/97-11/1997
[10] = source organism: Dengue virus 3 Martinique/1243/1999
[11] = source organism: Dengue virus 4 Philippines/H241/1956
[12] = source organism: Mammarenavirus lassaense

| Sequence | Kd [1, 6] [nM] | Kd [2, 6] [nM] | Kd [3, 6] [nM] | Kd [4, 6] [nM] | Kd [5, 6] [nM] | other results |
| --- | --- | --- | --- | --- | --- | --- |
| TIDKSSPLY | 65.2 | 81.7 | ≥ 53700 | ≥ 77700 | 206 | – |
| VFIHMVRCCK | ≥ 20900 | 4820 | 43.9 | 212 | ≥ 24500 | – |
| YMPSMKRFRR | – | – | – | – | – | Kd [3, 7]: 10.2 nM; Kd [4, 7]: 10.7 nM; Kd [5, 7]: 1110 nM |
| RLYECLYRNR | – | – | – | – | – | Kd [1, 8]: 6.91 nM; Kd [2, 8]: 596 nM; Kd [3, 8]: 2.08 nM; Kd [4, 8]: 2460 nM; Kd [5, 8]: 229 nM |
| LIPLSEMVVK | 766 | 55.2 | 7380 | ≥ 24900 | 1490 | – |
| VVMAYVGIK | 18.6 | 1.24 | 2460 | ≥ 23200 | 19 | – |
| RTYSDPLALR | – | – | – | – | – | Kd [2, 9]: 92.1 nM; Kd [3, 9]: ≥ 70000 nM; Kd [5, 9]: 18.8 nM |
| KLIHEWCCR | – | – | – | – | – | Kd [3, 10]: 39.6 nM |
| ASLPTTIAK | – | – | – | – | – | Kd [3, 8]: 118 nM; Kd [4, 8]: ≥ 40300 nM; Kd [5, 8]: 2030 nM |
| SIGNVTRLFY | 2.94 | 25 | 3050 | 17400 | 2050 | – |
| ASLPYGANK | – | – | – | – | – | Kd [1, 8]: 177 nM; Kd [2, 8]: 111 nM; Kd [3, 8]: 514 nM; Kd [4, 8]: ≥ 52200 nM; Kd [5, 8]: 16500 nM |
| HLKCKVRMEK | – | – | – | – | – | Kd [1, 11]: 55.4 nM |
| PSVNEYHMLK | 10.2 | 13.7 | 408 | 11600 | 469 | – |
| AARILSEKR | ≥ 78000 | 6080 | 36.3 | 1070 | 852 | – |
| RIGTAATKR | 180 | 2420 | 17.2 | ≥ 77700 | 325 | – |
| AMRCVGIGNR | – | – | – | – | – | Kd [3, 9]: 872 nM |
| MTHRRPTIEK | – | – | – | – | – | Kd [1, 10]: 5.64 nM; Kd [2, 10]: 117 nM; Kd [5, 10]: 196 nM |
| SMGFKVTTR | 5010 | 4730 | 1.94 | 166 | 1270 | – |
| AIVCRFDTR | – | – | – | – | – | Kd [1, 8]: 4170 nM; Kd [2, 8]: 1210 nM; Kd [3, 8]: 133 nM; Kd [4, 8]: 329 nM; Kd [5, 8]: 563 nM |
| NSNIIKNKK | 10200 | 1240 | 1250 | 4300 | 241 | – |
| ISQGAGWSLR | – | – | – | – | – | Kd [3, 10]: 8.62 nM |
| TQMRTPLHK | 1180 | 78 | 3520 | ≥ 77700 | 8960 | – |
| STSQETWNR | – | – | – | – | – | Kd [5, 9]: 68.8 nM |
| KAIITPVVFY | 7470 | 900 | ≥ 70000 | ≥ 70000 | 6700 | – |
| SIILANERY | ≥ 78000 | 233 | 19900 | ≥ 77700 | 607 | – |

| Sequence | Kd [1, 6] [nM] | Kd [2, 6] [nM] | Kd [3, 6] [nM] | Kd [4, 6] [nM] | Kd [5, 6] [nM] | other results |
| --- | --- | --- | --- | --- | --- | --- |
| TIQRFSSLRR | 78.6 | 1.88 | 1.56 | 9.81 | 7.24 | – |
| ETLGEKWKR | – | – | – | – | – | Kd [4, 9]: 13.4 nM; Kd [5, 9]: 69.2 nM |
| VVMHINSPFK | 8.41 | 2.56 | 123 | 11600 | 37.4 | – |
| GQRCHFIKK | 21.4 | 13.4 | 62 | 13200 | ≥ 25000 | – |
| PSRSKMLKR | 16.4 | 5560 | 1890 | ≥ 51600 | ≥ 77700 | – |
| HSYAGDAAEH | – | – | – | – | – | Kd [1, 12]: 1480 nM; Kd [2, 12]: 17700 nM; Kd [3, 12]: 2960 nM; Kd [4, 12]: ≥ 48000 nM; Kd [5, 12]: 578 nM |
| YLALLAAFK | – | – | – | – | – | Kd [1, 7]: 1.32 nM; Kd [5, 7]: 18.4 nM |
| QAELTSNCTR | 2530 | 2430 | 801 | 818 | 240 | – |
| VTFKVPHAK | – | – | – | – | – | Kd [1, 11]: 10.2 nM; Kd [2, 11]: 53.2 nM; Kd [5, 11]: 177 nM |
| STELIRRVR | 13.9 | 127 | 91.8 | 1320 | 57.1 | – |
| SAKLQWFVER | – | – | – | – | – | Kd [3, 10]: 34.7 nM; Kd [4, 10]: 83 nM |
| TFKVPHAKR | – | – | – | – | – | Kd [3, 11]: 1.2 nM; Kd [4, 11]: 15.8 nM |
| TILIKVEYK | – | – | – | – | – | Kd [2, 10]: 1250 nM |
| GMMVLKIVR | – | – | – | – | – | Kd [3, 7]: 11.3 nM |
| TLLSLTFIK | – | – | – | – | – | Kd [1, 9]: 1.36 nM; Kd [2, 9]: 12.3 nM |
| ETLTSVFQK | – | – | – | – | – | Kd ([2]; source organism: Homo sapiens): 11 nM |
| TTVITPMMR | – | – | – | – | – | Kd [5, 9]: 34.6 nM |
| HAIGTSITQK | – | – | – | – | – | Kd [5, 9]: 34.5 nM |
| PFLALGFFLR | – | – | – | – | – | Kd [3, 10]: 186 nM; Kd [4, 10]: 286 nM |
| KTQVGVGVQK | – | – | – | – | – | Kd [2, 10]: 59.5 nM |
| KSSQRDTILK | – | – | – | – | – | Kd ([2]; source organism: Mammarenavirus brazilense): 33.2 nM |
| MGITAEWLWR | – | – | – | – | – | Kd [3, 10]: 88.5 nM |
| IMDLHPGSGK | – | – | – | – | – | Kd [1, 9]: 60.1 nM |
| EITHHAVSR | – | – | – | – | – | Kd [4, 10]: 89.8 nM; Kd [5, 10]: 24.1 nM |
| NMSFRDLGR | – | – | – | – | – | Kd [4, 7]: 8.95 nM |

From the Immune Epitope Database (IEDB)
